Entries after “also recorded” stand apart in the source; their conditions may differ.
B1: C-terminal truncation V507: NARC1 terminating at residue V507; much of the CRR removed (protein)
chain: MGIRCSTWLRWPLSPQLLLLLLLCPTGSRAQDEDGDYEELMLALPSQEDSLVDEASHVATATFRRCSKEAWRLPGTYVVVLMEETQRLQVEQTAHRLQTWAARRGYVIKVLHVFYDLFPGFLVKMSSDLLGLALKLPHVEYIEEDSLVFAQSIPWNLERIIPAWQQTEEDSSPDGSSQVEVYLLDTSIQSGHREIEGRVTITDFNSVPEEDGTRFHRQASKCDSHGTHLAGVVSGRDAGVAKGTSLHSLRVLNCQGKGTVSGTLIGLEFIRKSQLIQPSGPLVVLLPLAGGYSRILNTACQRLARTGVVLVAAAGNFRDDACLYSPASAPEVITVGATNAQDQPVTLGTLGTNFGRCVDLFAPGKDIIGASSDCSTCYMSQSGTSQAAAHVAGIVAMMLNRDPALTLAELRQRLILFSTKDVINMAWFPEDQRVLTPNRVATLPPSTQETGGQLLCRTVWSAHSGPTRTATATARCAPEEELLSCSSFSRSGRRRGDRIEAIGGQQV
modifications: mutant of rat sequence truncated mutant ends at amino acid Val507
notes: NARC1 terminating at residue V507; much of the CRR removed
B2: H225W: Full-length NARC1 point mutant; mutation of the active site histidine (protein)
chain: MGIRCSTWLRWPLSPQLLLLLLLCPTGSRAQDEDGDYEELMLALPSQEDSLVDEASHVATATFRRCSKEAWRLPGTYVVVLMEETQRLQVEQTAHRLQTWAARRGYVIKVLHVFYDLFPGFLVKMSSDLLGLALKLPHVEYIEEDSLVFAQSIPWNLERIIPAWQQTEEDSSPDGSSQVEVYLLDTSIQSGHREIEGRVTITDFNSVPEEDGTRFHRQASKCDSWGTHLAGVVSGRDAGVAKGTSLHSLRVLNCQGKGTVSGTLIGLEFIRKSQLIQPSGPLVVLLPLAGGYSRILNTACQRLARTGVVLVAAAGNFRDDACLYSPASAPEVITVGATNAQDQPVTLGTLGTNFGRCVDLFAPGKDIIGASSDCSTCYMSQSGTSQAAAHVAGIVAMMLNRDPALTLAELRQRLILFSTKDVINMAWFPEDQRVLTPNRVATLPPSTQETGGQLLCRTVWSAHSGPTRTATATARCAPEEELLSCSSFSRSGRRRGDRIEAIGGQQVCKALNAFGGEGVYAVARCCLLPRVNCSIHNTPAARAGPQTPVHCHQKDHVLTGCSFHWEVENLRAQQQPLLRSRHQPGQCVGHQEASVHASCCHAPGLECKIKEHGIAGPAEQVTVACEAGWTLTGCNVLPGASLPLGAYSVDNVCVARIRDAGRADRTSEEATVAAAICCRSRPSAKASWVHQ
modifications: mutant of rat sequence mutating amino acid His225Trp of SEQ ID NO9
B3: Deletion of residues L147-M425, inclusive: NARC1 subtilase deletion, large; removes entire subtilase domain (protein)
chain: MGIRCSTWLRWPLSPQLLLLLLLCPTGSRAQDEDGDYEELMLALPSQEDSLVDEASHVATATFRRCSKEAWRLPGTYVVVLMEETQRLQVEQTAHRLQTWAARRGYVIKVLHVFYDLFPGFLVKMSSDLLGLALKLPHVEYIEEDSAWFPEDQRVLTPNRVATLPPSTQETGGQLLCRTVWSAHSGPTRTATATARCAPEEELLSCSSFSRSGRRRGDRIEAIGGQQVCKALNAFGGEGVYAVARCCLLPRVNCSIHNTPAARAGPQTPVHCHQKDHVLTGCSFHWEVENLRAQQQPLLRSRHQPGQCVGHQEASVHASCCHAPGLECKIKEHGIAGPAEQVTVACEAGWTLTGCNVLPGASLPLGAYSVDNVCVARIRDAGRADRTSEEATVAAAICCRSRPSAKASWVHQ
modifications: mutant of rat sequence deletion mutant removes amino acids Leu147-Met425, inclusive, of SEQ ID NO9
notes: NARC1 subtilase deletion, large; removes entire subtilase domain
B4: C-terminal truncation M425: NARC1 terminating at residue M425; all of the cysteine-rich region removed (protein)
chain: MGIRCSTWLRWPLSPQLLLLLLLCPTGSRAQDEDGDYEELMLALPSQEDSLVDEASHVATATFRRCSKEAWRLPGTYVVVLMEETQRLQVEQTAHRLQTWAARRGYVIKVLHVFYDLFPGFLVKMSSDLLGLALKLPHVEYIEEDSLVFAQSIPWNLERIIPAWQQTEEDSSPDGSSQVEVYLLDTSIQSGHREIEGRVTITDFNSVPEEDGTRFHRQASKCDSHGTHLAGVVSGRDAGVAKGTSLHSLRVLNCQGKGTVSGTLIGLEFIRKSQLIQPSGPLVVLLPLAGGYSRILNTACQRLARTGVVLVAAAGNFRDDACLYSPASAPEVITVGATNAQDQPVTLGTLGTNFGRCVDLFAPGKDIIGASSDCSTCYMSQSGTSQAAAHVAGIVAMMLNRDPALTLAELRQRLILFSTKDVINM
modifications: mutant of rat sequence truncated sequence ends at amino acid Met 425
notes: NARC1 terminating at residue M425; all of the cysteine-rich region removed
B5: C-terminal truncation Q453: NARC1 terminating at residue Q453; most of the CRR removed (protein)
chain: MGIRCSTWLRWPLSPQLLLLLLLCPTGSRAQDEDGDYEELMLALPSQEDSLVDEASHVATATFRRCSKEAWRLPGTYVVVLMEETQRLQVEQTAHRLQTWAARRGYVIKVLHVFYDLFPGFLVKMSSDLLGLALKLPHVEYIEEDSLVFAQSIPWNLERIIPAWQQTEEDSSPDGSSQVEVYLLDTSIQSGHREIEGRVTITDFNSVPEEDGTRFHRQASKCDSHGTHLAGVVSGRDAGVAKGTSLHSLRVLNCQGKGTVSGTLIGLEFIRKSQLIQPSGPLVVLLPLAGGYSRILNTACQRLARTGVVLVAAAGNFRDDACLYSPASAPEVITVGATNAQDQPVTLGTLGTNFGRCVDLFAPGKDIIGASSDCSTCYMSQSGTSQAAAHVAGIVAMMLNRDPALTLAELRQRLILFSTKDVINMAWFPEDQRVLTPNRVATLPPSTQETGGQ
modifications: mutant of rat sequence truncated sequence ends at amino acid Gln453
B6: Deletion of residues Q218-A392, inclusive: NARC1 subtilase deletion, small; removes much of the subtilase domain including active site residues (protein)
chain: MGIRCSTWLRWPLSPQLLLLLLLCPTGSRAQDEDGDYEELMLALPSQEDSLVDEASHVATATFRRCSKEAWRLPGTYVVVLMEETQRLQVEQTAHRLQTWAARRGYVIKVLHVFYDLFPGFLVKMSSDLLGLALKLPHVEYIEEDSLVFAQSIPWNLERIIPAWQQTEEDSSPDGSSQVEVYLLDTSIQSGHREIEGRVTITDFNSVPEEDGTRFHRGIVAMMLNRDPALTLAELRQRLILFSTKDVINMAWFPEDQRVLTPNRVATLPPSTQETGGQLLCRTVWSAHSGPTRTATATARCAPEEELLSCSSFSRSGRRRGDRIEAIGGQQVCKALNAFGGEGVYAVARCCLLPRVNCSIHNTPAARAGPQTPVHCHQKDHVLTGCSFHWEVENLRAQQQPLLRSRHQPGQCVGHQEASVHASCCHAPGLECKIKEHGIAGPAEQVTVACEAGWTLTGCNVLPGASLPLGAYSVDNVCVARIRDAGRADRTSEEATVAAAICCRSRPSAKASWVHQ
modifications: mutant of rat sequence deletion mutant removes Gln218-Ala392, inclusive, of SEQ ID NO9

Columns and labels:
[1] = test system: NARC1; assay: Autoprocessing of NARC1 transiently expressed in COS-7 cells, Western blotting; format: cell-based, rat; settings: C-terminal myc/His fusion transiently expressed in COS-7 cells, 60 kD processing product on Western blot
Protocol: The wild-type NARC1-myc/His clone was transiently expressed in COS-7 cells. The cells were then harvested, lysed, and the protein extracted. Polyacrylamide gel electrophoresis was then carried out on the protein extracts, followed by Western blotting. The resulting membranes were probed using both anti-myc- and NARC1-specific antibodies. Routine techniques and protocols were followed. See, e.g., Ausubel et al.(1998), supra.
This cleavage event maps to approximately the junction between the pro-domain and the enzymatic domain.
Autoprocessing of NARC1 was investigated as follows. COS-7 cells were co-transfected with the following EGFP and myc plasmids: (A) wild-type NARC1-myc and wild-type NARC1-EGFP; (B) S385A NARC1-myc and S385A NARC1-EGFP; and (C) wild-type NARC1-myc and S385A NARC1-myc. The cells were then harvested, lysed, and the protein extracted. Polyacrylamide gel electrophoresis was then carried out on the protein extracts, followed by Western blotting. The resulting membranes were sequentially probed using first the anti-myc and then the anti-EGFP monoclonal antibodies (Abs). Thus, the experiment allowed sequential detection of the separate NARC1 products encoded from the two co-transfected plasmids.
As indicated above, a series of C-terminal truncation mutants were generated. The truncation NARC1-myc/His clones were transiently expressed in COS-7 cells. The cells were then harvested, lysed, the protein extracted, and polyacrylamide gel electrophoresis carried out on the protein extracts. Western analysis was then carried out using both anti-myc and NARC1-specific antibodies.

[2] = test system: cerebellar granule neurons (CGNs); assay: Apoptosis after transient expression of NARC1-EGFP constructs in CGNs, Laser-Scanning Cytometry; format: cell-based, rat; settings: for BAF sensitivity of induced cell death: CGNs, 100 μM BAF; for Resulting Cell Death Activity: EGFP construct transiently expressed in CGNs, percentage of GFP-positive cells undergoing apoptosis
Text: Cerebellar granule neurons (CGNs) were transfected with a NARC1-enhanced green fluorescent protein (EGFP) expression construct (with the EGFP sequences located at the carboxy terminus of the fusion protein). Unless otherwise indicated, the construct utilized in the following experiments contained 2073 base pairs of the rat NARC1 transcript set forth in FIG. 5. Specifically, this corresponds to nucleotides 205-2277 and amino acid residues 56-746 of SEQ ID NO:4 and SEQ ID NO:3, respectively. The polypeptide sequence encoded by the NARC1 insert utilized herein has been set forth as SEQ ID NO:9 herein. The nucleotide sequence of this insert has been set forth as SEQ ID NO:10.
To investigate NARC1-mediated neuronal cell death, transient expression of the EGFP clones was carried out in cerebellar granule neurons (CGNs). These studies are set forth in detail as follows.

| Molecule | Autoprocessing Activity [1] | Autoprocessing Activity ([1]; listed as V507 C-terminal truncation mutant) | Autoprocessing Activity ([1]; listed as V507 truncation) | BAF sensitivity of induced cell death [2] | Resulting Cell Death Activity [2] |
| --- | --- | --- | --- | --- | --- |
| B1 | Marked increase in | markedly increased level of autoprocessing | increased rate of processing | insensitive. | Induces wild type |
| B2 | reduces autoprocessing; also recorded: Reduced processing | – | – | – | essentially a wild-type phenotype; also recorded: no effect on the cell death phenotype |
| B3 | Absence of processing. | – | – | – | Reduced activity. |
| B4 | Normal processing. | – | – | insensitive. | Induces wild type |
| B5 | Normal processing. | – | – | insensitive. | Induces wild type |
| B6 | Absence of processing. | – | – | – | Reduced activity. |

Reference: patent US20030119038A1, “NARC1, novel subtilase-like homologs” (priority 1999, published 2003)
